# Target: porcine TSH receptor (immobilized, TSH Receptor Autoantibody 2nd Generation ELISA kit, RSR Limited) (porcine) (UniProt Q8SPP9)
# Test: competition ELISA; inhibition of biotinylated rhTSH binding to immobilized porcine TSH receptor
# Sequence of porcine TSH receptor (immobilized, TSH Receptor Autoantibody 2nd Generation ELISA kit, RSR Limited) (porcine) (Q8SPP9 22-764 limits assumed): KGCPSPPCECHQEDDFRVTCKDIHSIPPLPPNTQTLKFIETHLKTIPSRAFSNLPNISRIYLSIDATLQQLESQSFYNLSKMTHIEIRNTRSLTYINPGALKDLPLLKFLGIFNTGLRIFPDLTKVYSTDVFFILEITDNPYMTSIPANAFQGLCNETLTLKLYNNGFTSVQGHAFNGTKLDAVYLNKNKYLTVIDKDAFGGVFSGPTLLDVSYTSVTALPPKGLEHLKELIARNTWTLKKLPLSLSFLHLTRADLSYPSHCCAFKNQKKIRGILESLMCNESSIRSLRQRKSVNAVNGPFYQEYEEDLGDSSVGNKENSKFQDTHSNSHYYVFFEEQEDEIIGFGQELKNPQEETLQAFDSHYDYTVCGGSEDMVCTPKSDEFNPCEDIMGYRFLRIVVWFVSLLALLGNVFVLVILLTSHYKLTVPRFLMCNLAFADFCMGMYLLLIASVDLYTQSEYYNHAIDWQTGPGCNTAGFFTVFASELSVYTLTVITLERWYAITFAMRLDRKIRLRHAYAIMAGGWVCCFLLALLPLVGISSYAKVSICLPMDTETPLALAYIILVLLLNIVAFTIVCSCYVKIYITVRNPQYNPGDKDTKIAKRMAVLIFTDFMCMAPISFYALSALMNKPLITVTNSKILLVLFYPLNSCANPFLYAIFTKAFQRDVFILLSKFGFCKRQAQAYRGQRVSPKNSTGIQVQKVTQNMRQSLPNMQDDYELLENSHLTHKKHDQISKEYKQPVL
# Sequence of PEG rhTSH (20 KD SAM), monoPEGylated (ligand) (P01215 25-116): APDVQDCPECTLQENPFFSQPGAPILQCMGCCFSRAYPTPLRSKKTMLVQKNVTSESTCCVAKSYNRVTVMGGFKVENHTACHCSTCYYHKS
# Sequence of PEG rhTSH (20 KD SAM), monoPEGylated (ligand) (P01222 21-138, further chain): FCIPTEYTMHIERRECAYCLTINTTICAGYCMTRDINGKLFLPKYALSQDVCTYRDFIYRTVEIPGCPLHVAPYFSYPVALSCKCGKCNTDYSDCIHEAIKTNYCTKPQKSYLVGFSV
# Sequence of mono-40 kDa NHS PEG-TSH (Lysine PEGylation) (ligand) (P01215 25-116): as the sequence (P01215 25-116) above
# Sequence of mono-40 kDa NHS PEG-TSH (Lysine PEGylation) (ligand) (P01222 21-138, further chain): as the sequence (P01222 21-138, further chain) above
# Sequence of PEG rhTSH (10 KD MultiSAM) (ligand) (P01215 25-116): as the sequence (P01215 25-116) above
# Sequence of PEG rhTSH (10 KD MultiSAM) (ligand) (P01222 21-138, further chain): as the sequence (P01222 21-138, further chain) above
# Sequence of PEG rhTSH (40 KD GAM-), monoPEGylated (ligand) (P01215 25-116): as the sequence (P01215 25-116) above
# Sequence of PEG rhTSH (40 KD GAM-), monoPEGylated (ligand) (P01222 21-138, further chain): as the sequence (P01222 21-138, further chain) above
# Sequence of PEG rhTSH (40 KD GAM+), monoPEGylated (ligand) (P01215 25-116): as the sequence (P01215 25-116) above
# Sequence of PEG rhTSH (40 KD GAM+), monoPEGylated (ligand) (P01222 21-138, further chain): as the sequence (P01222 21-138, further chain) above
# Sequence of PEG rhTSH (20 KD GAM+), monoPEGylated (ligand) (P01215 25-116): as the sequence (P01215 25-116) above
# Sequence of PEG rhTSH (20 KD GAM+), monoPEGylated (ligand) (P01222 21-138, further chain): as the sequence (P01222 21-138, further chain) above
# Sequence of PEG rhTSH (10 KD SAM), monoPEGylated (ligand) (P01215 25-116): as the sequence (P01215 25-116) above
# Sequence of PEG rhTSH (10 KD SAM), monoPEGylated (ligand) (P01222 21-138, further chain): as the sequence (P01222 21-138, further chain) above
# Sequence of PEG rhTSH (40 KD SAM), monoPEGylated (ligand) (P01215 25-116): as the sequence (P01215 25-116) above
# Sequence of PEG rhTSH (40 KD SAM), monoPEGylated (ligand) (P01222 21-138, further chain): as the sequence (P01222 21-138, further chain) above
# Sequence of PEG rhTSH (20 KD GAM-), monoPEGylated (ligand) (P01215 25-116): as the sequence (P01215 25-116) above
# Sequence of PEG rhTSH (20 KD GAM-), monoPEGylated (ligand) (P01222 21-138, further chain): as the sequence (P01222 21-138, further chain) above
IC50 [nM],fold change (IC50 against rhTSH) [fold],Substance
294,8,"PEG rhTSH (40 KD GAM-), monoPEGylated (ligand)"
196,5.3,"PEG rhTSH (40 KD SAM), monoPEGylated (ligand)"
876,31.2,mono-40 kDa NHS PEG-TSH (Lysine PEGylation) (ligand)
78.1,2.1,"PEG rhTSH (10 KD SAM), monoPEGylated (ligand)"
138,3.8,PEG rhTSH (10 KD MultiSAM) (ligand)
81.7,2.2,"PEG rhTSH (20 KD GAM+), monoPEGylated (ligand)"
101,2.7,"PEG rhTSH (20 KD GAM-), monoPEGylated (ligand)"
133,3.6,"PEG rhTSH (40 KD GAM+), monoPEGylated (ligand)"
92.3,2.5,"PEG rhTSH (20 KD SAM), monoPEGylated (ligand)"

# From US20170065725A1
